# B1: GL20 IgG (antibody, V domains shown)
# VH: QVQLQQSGPGLVKPSQTLSLTCAISGDSVSSYNAVWNWIRQSPSRGLEWLGRTYYRSGWYNDYAESVKSRITINPDTSKNQFSLQLNSVTPEDTAVYYCARSGHITVFGVNVDAFDMWGQGTMVTVSS
# VL: DIQMTQSPSSLSASVGDRVTITCRTSQSLSSYTHWYQQKPGKAPKLLIYAASSRGSGVPSRFSGSGSGTDFTLTISSLQPEDFATYYCQQSRTFGQGTKVEIK
# B2: GL20/39 BiS4 100/44 (bispecific antibody)
# light: DIQMTQSPSSLSASVGDRVTITCRTSQSLSSYTHWYQQKPGKAPKLLIYAASSRGSGVPSRFSGSGSGTDFTLTISSLQPEDFATYYCQQSRTFGQGTKVEIKRTVAAPSVFIFPPSDEQLKSGTASVVCLLNNFYPREAKVQWKVDNALQSGNSQESVTEQDSKDSTYSLSSTLTLSKADYEKHKVYACEVTHQGLSSPVTKSFNRGEC
# heavy: not shown
# Legend:
# Experiment in all cases: cell-based or functional assay
# [1] = biological target: HA of A/California/07/2009 (H1N1) (influenza A virus)
# [2] = biological target: HA of A/Hong Kong/8/68 (H3N2) (influenza A virus)
# [3] = biological target: HA of A/Fort Monmouth/1/47 (H1N1) (influenza A virus)
# [4] = biological target: HA of ca A/New Caledonia/20/99 (H1N1) (influenza A virus)
# [5] = biological target: HA of A/California/07/2009 (H1N1) (influenza A virus); remark: listed apart in the source
# [6] = biological target: HA of A/New Hampshire/04/2010 (H1N1) (influenza A virus)
# [7] = biological target: HA of ca A/mallard/Alberta/89/85 (H6N2) (influenza A virus)
# [8] = biological target: HA of A/Berlin/93/2011 (H3N2) (influenza A virus)
# [9] = biological target: HA of A/New Caledonia/71/2014 (H3N2) (influenza A virus)
# [10] = biological target: HA protein derived from A/Hong Kong/8/68 H3N2, on stably transfected MDCK cells (influenza A virus)
# [11] = biological target: HA of A/Hong Kong/2212/2010 (H1N1) (influenza A virus)
# [12] = biological target: HA of ca B/Ann Arbor/1/66 (influenza B virus)
# [13] = biological target: HA of B/Hong Kong/5/72 (influenza B virus)
# [14] = biological target: HA of ca B/Beijing/243/97 (victoria) (influenza B virus)
# [15] = biological target: HA of B/Hong Kong/330/2001 (victoria) (influenza B virus)
# [16] = biological target: HA of B/Ohio/1/2005 (victoria) (influenza B virus)
# [17] = biological target: HA of ca B/Brisbane/60/2008 (victoria) (influenza B virus)
# [18] = biological target: HA of B/Nevada/3/2011 (victoria) (influenza B virus)
# [19] = biological target: HA of B/New Jersey/01/2012 (victoria) (influenza B virus)
# [20] = biological target: HA of B/Texas/2/2013 (victoria) (influenza B virus)
# [21] = biological target: HA of B/Wisconsin/5/2013 (victoria) (influenza B virus)
# [22] = biological target: HA of B/Yamanashi/166/98 (yamagata) (influenza B virus)
# [23] = biological target: HA of B/Sichuan/379/99 (yamagata) (influenza B virus)
# [24] = biological target: HA of B/Florida/4/2006 (yamagata) (influenza B virus)
# [25] = biological target: HA of B/Wisconsin/1/2010 (yamagata) (influenza B virus)
# [26] = biological target: HA of B/Arizona/8/2013 (yamagata) (influenza B virus)
# [27] = biological target: HA of B/Lee/40 (influenza B virus, UniProt P03460 16-584)
# Sequence of HA of B/Lee/40 (P03460 16-584 limits assumed): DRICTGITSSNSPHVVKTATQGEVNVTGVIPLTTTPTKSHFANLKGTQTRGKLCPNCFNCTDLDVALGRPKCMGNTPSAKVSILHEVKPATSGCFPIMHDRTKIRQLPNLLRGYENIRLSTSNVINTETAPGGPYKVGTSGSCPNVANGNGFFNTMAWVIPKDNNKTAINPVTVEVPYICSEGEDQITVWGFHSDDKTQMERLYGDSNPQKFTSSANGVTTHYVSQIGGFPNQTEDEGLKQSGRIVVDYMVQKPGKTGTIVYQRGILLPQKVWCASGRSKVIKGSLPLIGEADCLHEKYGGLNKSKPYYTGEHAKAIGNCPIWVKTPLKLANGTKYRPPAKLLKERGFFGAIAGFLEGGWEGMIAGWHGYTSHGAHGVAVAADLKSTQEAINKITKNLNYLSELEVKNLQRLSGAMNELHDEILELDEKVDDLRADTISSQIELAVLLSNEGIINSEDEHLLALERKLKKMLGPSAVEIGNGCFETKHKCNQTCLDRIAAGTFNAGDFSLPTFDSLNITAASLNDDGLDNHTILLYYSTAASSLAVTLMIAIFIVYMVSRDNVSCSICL
# [28] = biological target: HA of ca B/Ann Arbor/1/66 (influenza B virus); remark: listed apart in the source
# [29] = biological target: HA of B/Hong Kong/5/72 (influenza B virus); remark: listed apart in the source
# [30] = biological target: HA of ca B/Beijing/243/97 (victoria) (influenza B virus); remark: listed apart in the source
# [31] = biological target: HA of B/Hong Kong/330/2001 (victoria) (influenza B virus); remark: listed apart in the source
# [32] = biological target: HA of B/Malaysia/2506/2004 (victoria) (influenza B virus)
# [33] = biological target: HA of B/Ohio/1/2005 (victoria) (influenza B virus); remark: listed apart in the source
# [34] = biological target: HA of ca B/Brisbane/60/2008 (victoria) (influenza B virus); remark: listed apart in the source
# [35] = biological target: HA of B/Yamagata/16/88 (yamagata) (influenza B virus)
# [36] = biological target: HA of ca B/Ann Arbor/2/94 (yamagata) (influenza B virus)
# [37] = biological target: HA of ca B/Georgia/02/98 (yamagata) (influenza B virus)
# [38] = biological target: HA of B/Yamanashi/166/98 (yamagata) (influenza B virus); remark: listed apart in the source
# [39] = biological target: HA of ca B/Johannesburg/5/99 (yamagata) (influenza B virus)
# [40] = biological target: HA of B/Sichuan/379/99 (yamagata) (influenza B virus); remark: listed apart in the source
# [41] = biological target: HA of ca B/Victoria/504/2000 (yamagata) (influenza B virus)
# [42] = biological target: HA of B/Shanghai/361/02 (yamagata) (influenza B virus)
# [43] = biological target: HA of B/Florida/4/2006 (yamagata) (influenza B virus); remark: listed apart in the source
binder,measurement,setting,value
B1,"ADCC: NK cell killing of infected A549 cells (LDH release), IC50",[1],0.024 nM
same,"ADCC: NK cell killing of infected A549 cells (LDH release), IC50",[2],0.018 nM
same,Neutralization (IC50),[3],6.1 nM
same,Neutralization (IC50),[4],4.2 nM
same,Neutralization (IC50),[5],10.2 nM
same,Neutralization (IC50),[6],0.4 nM
same,Neutralization (IC50),[7],4.8 nM
same,Neutralization (IC50),[8],1.1 nM
same,Neutralization (IC50),[9],1 nM
same,"EC50 (read off the curve), ADCP % double positive",[10],~0.04 nM
B2,Neutralization (IC50),[3],5.2 nM
same,Neutralization (IC50),[4],6.2 nM
same,Neutralization (IC50),[5],10.9 nM
same,Neutralization (IC50),[11],0.4 nM
same,Neutralization (IC50),[6],0.4 nM
same,Neutralization (IC50),[7],6.5 nM
same,Neutralization (IC50),[8],1.1 nM
same,Neutralization (IC50),[9],0.8 nM
same,Neutralization (IC50),[12],12.8 nM
same,Neutralization (IC50),[13],5.7 nM
same,Neutralization (IC50),[14],25.9 nM
same,Neutralization (IC50),[15],66.9 nM
same,Neutralization (IC50),[16],18.7 nM
same,Neutralization (IC50),[17],51.8 nM
same,Neutralization (IC50),[18],38.2 nM
same,Neutralization (IC50),[19],23 nM
same,Neutralization (IC50),[20],13.8 nM
same,Neutralization (IC50),[21],14.5 nM
same,Neutralization (IC50),[22],0.3 nM
same,Neutralization (IC50),[23],12.1 nM
same,Neutralization (IC50),[24],1.4 nM
same,Neutralization (IC50),[25],4.4 nM
same,Neutralization (IC50),[26],2.2 nM
same,Hemagglutination Inhibition Titer,[27],61 nM
same,Hemagglutination Inhibition Titer,[28],244 nM
same,Hemagglutination Inhibition Titer,[29],244 nM
same,Hemagglutination Inhibition Titer,[30],91 nM
same,Hemagglutination Inhibition Titer,[31],244 nM
same,Hemagglutination Inhibition Titer,[32],244 nM
same,Hemagglutination Inhibition Titer,[33],244 nM
same,Hemagglutination Inhibition Titer,[34],244 nM
same,Hemagglutination Inhibition Titer,[35],122 nM
same,Hemagglutination Inhibition Titer,[36],61 nM
same,Hemagglutination Inhibition Titer,[37],122 nM
same,Hemagglutination Inhibition Titer,[38],122 nM
same,Hemagglutination Inhibition Titer,[39],122 nM
same,Hemagglutination Inhibition Titer,[40],122 nM
same,Hemagglutination Inhibition Titer,[41],61 nM
same,Hemagglutination Inhibition Titer,[42],91 nM
same,Hemagglutination Inhibition Titer,[43],61 nM
